These results are taken from patent publication US20260234655A1, “Nuclear Targeted DNA Delivery and Compositions for Use in Practicing the Same” (Seawolf Therapeutics, Inc., priority 2022, published 2026).

The subject of series [1] is growth-arrested HepG2 cells. Put plainly: Arrayed DTS screen in growth-arrested HepG2 cells; GFP intensity by live-cell imaging. The series is classed as cell-based. The conditions noted are these: 24 h post-transfection. From the text: DNA construct design. Each DTS was constructed in pentameric repeat using a 15 bp spacer between each TFBS. The DTS was appended just 5′ to the promoter, effectively in a putative enhancer region. Various promoters were employed in these constructs, including CBh (a variant of the CAG promoter) and TTR. Several reporter genes were employed in these constructs, including enhanced Green Fluorescent Protein (eGFP). The polyadenylation (polyA) signal is a BGH-PolyA sequence. For pooled screening, unique molecular identifiers (UMIs; also known as barcodes) were used to distinguish between DNA constructs in a pool, and the UMIs were appended to the 3′UTR immediately downstream of the stop codon of eGFP, just preceding the BGH-PolyA sequence.
Cell culture. HepG2 cells were plated into a 384-well plate and grown for 48 hours to achieve confluency. Cell media was removed and replaced with culture media supplemented with Aphidicolin (1 uM) using EL406 automated plate washer and dispenser, then cells were transfected with DTS containing 17.5 ng plasmids using Lipofectamine 3000 without supplement. Expression of GFP was monitored using a Biotek Cytation 5 cell imaging reader over 24 hours to evaluate DTS activity. Total GFP per well was calculated and averaged over 4 well replicates.
pDNAs containing various DTSs (Table 12) were transfected individually into growth-arrested HepG2 cells. Cell growth was inhibited to prevent dissolution of the nuclear envelope. GFP expression was quantified over a period of 24 h post-transfection by measuring GFP intensity using quantitative live-cell imaging. Statistical analysis and hierarchical clustering methods were used to easily differentiate strong DTSs from weak DTSs in a heatmap (FIG. 5A). […] DTS.203: CREB1, PPARA, ONECUT1, HNF4A, PPARA. DTS.233: HNF1A, NR113, PPARA, HNF1A, PPARA. DTS.276: FOXA1, HNF4A, HNF1A, HNF4A, HNF1A.
For the arrayed screen, pDNAs containing various DTSs were transfected individually into growth-arrested HepG2 cells. For the pooled screen, pDNAs containing various DTSs were pooled together and transfected as a pool into growth-arrested HepG2 cells. Cell growth was inhibited to prevent dissolution of the nuclear envelope, which improves the accuracy of measuring DTS activity related to nuclear translocation. For the arrayed screen, GFP protein expression was quantified 24 h post-transfection by measuring GFP intensity using quantitative live-cell imaging. For the pooled screen, mRNA abundance for each DTS variant was determined using RNA-seq by deconvoluting the read counts for each UMI. A strong correlation between protein expression in the arrayed screen and mRNA expression in the pooled screen was observed (FIG. 6). […] Pooled screening can thus be used to quickly and reliably identify strong DTSs.

Series [2] concerns growth-arrested HepG2 cells. Description: Pooled DTS screen in growth-arrested HepG2 cells; mRNA abundance by RNA-seq of UMIs. It counts as cell-based. An excerpt:
Library cloning. Pooled DTS libraries were designed as described above. To ensure the highest quality library production of oligos for cloning, oligo lengths were standardized to 300 bp. To accommodate this standardized length the core sequence of each DTS was embedded center-justified in a neutral fragment of random DNA sequence. The flanks of each oligo contained unique golden gate restriction enzyme digestion sites (Bsal) for cloning of double stranded DNA into screening vectors. […] The proper UMI/DTS barcode correlation (termed here the “library registry”) was determined via excision of the hTTR/eGFP fragments, re-ligation of the vector, PCR amplification of the corresponding proximal DTS and UMI regions, and sequencing on an Illumina Miseq (2×150 bp reads). […]
Quantification of mRNA abundance from pooled DTS screens. […] The PCR amplified cDNA was then library prepped (NEBNext library prep for Illumina) and sequenced on an Illumina Miseq (2×150 bp reads). Counts for each UMI were translated into the corresponding DTS using the UMI/Barcode registry and changes in abundance of each DTS were statistically analyzed using a custom R script. The log 2 fold change is calculated by comparing the RNA level in the pool vs. its expected abundance, which is derived from the abundance in the corresponding input DNA pool. […]

B1: NFKB: benchmark DTS with NF-κB binding sites in pentameric repeat (SEQ ID NO: 140) (nucleic acid)
DNA: GGGACTTTCCAGATTACTACTGATAGGGACTTTCCAGATTACTACTGATAGGGACTTTCCAGATTACTACTGATAGGGACTTTCCAGATTACTACTGATAGGGACTTTCC
modifications: DNA nuclear targeting sequence within DNA cargo construct, further chemistry not given here
Turning to B1, in series [1], the “GFP intensity / gene expression in arrayed screen compared to Spacer negative control” value was “robust increases”. In series [2], the “mRNA abundance in pooled screen relative to Spacer negative control” value is recorded as “robust increases”.
